Reference: patent US20250051471A1, “Anti-Abcb1 Antibodies” (WILLIAM ROBERT ARATHOON LIVING TRUST DATED AUGUST 29, 2016, priority 2021, published 2025)

Tests used:
Assay type in all cases: cell-based
[1] = test system: human Red Blood Cells; experiment: Antibody binding to human red blood cells by flow cytometry; details: percent of RBC in the R3 gate
Protocol: (§1) Antibody binding to human and cynomolgus RBC was assessed by flow cytometry. Normal human and cynomolgus whole blood was obtained from BiolVT. RBC were prepared by centrifugation of whole blood aliquots (0.5 mL) for 5 min at 500xg. Supernatant (plasma) was removed, and RBC washed 3 times in D-PBS+1 mM EDTA. After the final wash, the RBC were resuspended in D-PBS+1 mM EDTA to a final volume of 0.5 mL. Washed RBC were then diluted in flow cytometry buffer (D-PBS+2% FBS+0.05% sodium azide) to 2% and dispensed at […] into 96-well plates. An equivalent volume ([…]) of antibody serially diluted in flow cytometry buffer to 2× final was added to the RBC, and the mixture incubated for 1 hour at room temperature. Next, RBC were washed 3 times with flow cytometry buffer and resuspended in 50 μL of Alexa Fluor®647 conjugated Fab fragment goat anti-human IgG diluted 1:200 in flow cytometry buffer. After 20 minutes at room temperature RBC were washed twice, resuspended in flow cytometry buffer and analyzed using an Invitrogen™ Attune™ NXT flow cytometer. […] Left panel, RBC are gated (R1) based on forward and side scatter. Middle panel, a second gate (R2) is applied to eliminate any remaining doublets or aggregates. Right panel, fluorescence of the R2 gated cells is assessed and a final gate (R3) is set using unstained RBC. Cells falling in the R3 gate are defined as “positive” for binding and reported as the percent (of R2 gated cells) that fall in the R3 gate. The results are presented at percent positive which represents the percent of RBC in the R3 gate.

[2] = test system: cynomolgus Red Blood Cells; experiment: Antibody binding to cynomolgus red blood cells by flow cytometry; details: percent of RBC in the R3 gate
Protocol: as §1

[3] = test system: N6/ADR cells; experiment: Cytotoxicity potency assay (antibody titrated, vincristine constant)
Protocol: The relative potency of the samples was evaluated using N6/ADR cells. These cells expressed both ABCB1 and CD47 with the expression of CD47 ˜40-fold higher than ABCB1 as determined by staining with R-phycoerythrin (R-PE) conjugated, commercially available antibodies against ABCB1 (UIC2, Biolegend) and CD47 (CC2C6, Biolegend). This assay also examined the effect of antibodies on vincristine-induced cytotoxicity using the drug-resistant cell line, N6/ADR. However, in this assay format the concentration of vincristine was held constant while the ABCB1 x CD47 BsAbs (or isotype control antibodies) were serially diluted. This assay measured antibody IC50. Lower IC50 meant higher antibody potency.
The potency assay was performed as follows. Cells were plated in 0.05 mL of assay media at 5000 cells/well in white flat bottom 96-well tissue culture plates and incubated overnight at 37° C., 5% CO2. […] An equivalent volume (0.05 mL) diluted antibody/vincristine mixture was transferred to the N6/ADR cells and incubated at 37° C., in 5% CO^2. After 72 hours, plates were removed from the incubator and allowed to equilibrate to room temperature. Viability was assessed using the Promega® CellTiter-Glo® Luminescent Cell Viability Assay according to the manufacturer's recommended protocol.

| Molecule | Binding to human Red Blood Cells % positive D834 ([1]; donor D834) [%] | Binding to human Red Blood Cells % positive D835 ([1]; donor D835) [%] | Binding to human Red Blood Cells % positive D836 ([1]; donor D836) [%] | Binding to human Red Blood Cells % positive D837 ([1]; donor D837) [%] | Binding to cynomolgus Red Blood Cells % Positive Cy744 ([2]; donor Cy744) [%] | Binding to cynomolgus Red Blood Cells % Positive Cy745 ([2]; donor Cy745) [%] | Binding to cynomolgus Red Blood Cells % Positive Cy747 ([2]; donor Cy747) [%] | potency increasing cytotoxicity [3] |
| --- | --- | --- | --- | --- | --- | --- | --- | --- |
| 15D3hmzhG1 HIR2/Fc/B1.89v1 huL1(KV2) hmz LC: humanized anti-ABCB1 mono arm antibody with B1.89v1 huL1(KV2) light chain (antibody, left off: another chain or arm of the molecule, humanized anti-ABCB1 mono arm antibody with B1.89v1 huL1(KV2) light chain) heavy: EVQLVESGGVVVQPGGSLRLSCAASGFTFSRYTMSWVRQAPGKGLEWVATISSGGGNTYYPDSVKGRFTVSRDNSKNSLYLQMNSLRTEDTALYYCARYGAGDAWFAYWGQGTLVTVSSASTKGPSVFPLAPSSKSTSGGTAALGCLVKDYFPEPVTVSWNSGALTSGVHTFPAVLQSSGLYSLSSVVTVPSSSLGTQTYICNVNHKPSNTKVDKRVEPKSCDKTHTCPPCPAPELLGGPSVFLFPPKPKDTLMISRTPEVTCVVVDVSHEDPEVKFNWYVDGVEVHNAKTKPREEQYNSTYRVVSVLTVLHQDWLNGKEYKCKVSNKALPAPIEKTISKAKGQPREPQVCTLPPSREEMTKNQVSLSCAVKGFYPSDIAVEWESNGQPENNYKTTPPVLDSDGSFVLVSKLTVDKSRWQQGNVFSCSVMHEALHNHYTQKSLSLSPG light: DIVMTQSPLSLPVTPGEPASISCRSSQTIVHSNGNTYLEWYLQKPGQSPQLLIYKVSKRFSGVPDRFSGSGSGTDFTLKISRVEAEDVGVYYCFQASHFPRTFGQGTKLEIKRTVAAPSVFIFPPSDEQLKSGTASVVCLLNNFYPREAKVQWKVDNALQSGNSQESVTEQDSKDSTYSLSSTLTLSKADYEKHKVYACEVTHQGLSSPVTKSFNRGEC | 0.2 | 0.2 | 0.1 | 0.1 | 0.3 | 0.6 | 4.0 | lesser potency than the corresponding bispecific antibodies |
| 15D3 hmz HIR2/Fc/B1VL6/CDR3v2a hmz: humanized anti-ABCB1 mono arm antibody with B1VL6/CDR3v2a light chain (antibody, left off: another chain or arm of the molecule; small tags and cut ends) heavy: EVQLVESGGVVVQPGGSLRLSCAASGFTFSRYTMSWVRQAPGKGLEWVATISSGGGNTYYPDSVKGRFTVSRDNSKNSLYLQMNSLRTEDTALYYCARYGAGDAWFAYWGQGTLVTVSSASTKGPSVFPLAPSSKSTSGGTAALGCLVKDYFPEPVTVSWNSGALTSGVHTFPAVLQSSGLYSLSSVVTVPSSSLGTQTYICNVNHKPSNTKVDKRVEPKSCDKTHTCPPCPAPELLGGPSVFLFPPKPKDTLMISRTPEVTCVVVDVSHEDPEVKFNWYVDGVEVHNAKTKPREEQYNSTYRVVSVLTVLHQDWLNGKEYKCKVSNKALPAPIEKTISKAKGQPREPQVCTLPPSREEMTKNQVSLSCAVKGFYPSDIAVEWESNGQPENNYKTTPPVLDSDGSFVLVSKLTVDKSRWQQGNVFSCSVMHEALHNHYTQKSLSLSPG light: DIVMTQSPLSLPVTPGEPASISCRSSQSLVHSNGNTYLEWYLQKPGQSPQLLIYKVSNRFSGVPDRFSGSGSGTDFTLKISRVEAEDVGVYYCFQGSHFPRTFGQGTKLEIKRTVAAPSVFIFPPSDEQLKSGTASVVCLLNNFYPREAKVQWKVDNALQSGNSQESVTEQDSKDSTYSLSSTLTLSKADYEKHKVYACEVTHQGLSSPVTKSFNRGEC |  |  |  |  |  |  |  | lesser potency than the corresponding bispecific antibodies |
